Test results published in patent US20230374140A1 (Memorial Sloan Kettering, published 2023).
Changes are numbered by the printed parent chain.

B1: Clone 18 scFv phage clone (Clone 18 scFv) (scFv)
scFv: QSVLTQPPSVSVAPGQKVTISCSGSSSNIGNNYVSWYQQLPGTAPKLLIYDNNKRPSGIPDRFSGSKSGTSATLGITGLQTGDEADYYCQSYDVYNMTSVFGGGTKLTVLGSRGGGGSGGGGSGGGGSLEMAQMQLVQSGAEVKKPGSSVKVSCKASGGTFSSYAISWVRQAPGQGLEWMGGIIPIFGTANYAQKFQGRVTITADESTSTAYMELSSLRSDDTAVYYCARGFSSWPGIDQWGQGTLVTVSS
B2: Clone 5 scFv phage clone (scFv, V domains shown)
VH: QLQLQESGPGLVKPSGTLSLTCAVSGGSISSSNWWSWVRQPPGKGLEWIGEIYHSGSTNYNPSLKSRVTISVDKSKNQFSLKLSSVTAADTAVYYCARFIYGSSSSQTDTWGQGTLVTVSS
VL: QSVLTQPPSVSAAPGQKVTISCSGSSSNIGSNYIYWYQQFPGTAPKLLIYDDNKRPSGIPDRFSGSRSGTSATLGITGLQTGDEADYYCGTWDSPLVAWVFGGGTKLTVLG
B3: Clone 4 scFv phage clone (scFv, V domains shown)
VH: QVQLQQWGAGLLKPSETLSLTCAVYGGSFSGYYWSWIRQPPGKGLEWIGEINHSGSTNYNPSLKSRVTISVDTSKNQFSLKLSSVTAADTAVYYCARGVPYDYWGQGTLVTVSS
VL: QSVLTQPPSVSAAAGQKVTISCSGSRSNIGSNFVSWYQLLPGTAPRLLIYDNNVRPSGIPDRFSGSKSGSSATLGITGLQTGDEADYYCGTWDSSLIAGVFGGGTKLTVLG
B4: Clone 16 scFv phage clone (scFv, V domains shown)
VH: QVQLVQSGAEVKKPGASVKVSCKASGYTFTSYYMHWVRQAPGQGLEWMGIINPSGGSTSYAQKFQGRVTMTRDTSTSTVYMELSSLRSEDTAVYYCARRGWLSWGYYGMDVWGQGTTVTVSS
VL: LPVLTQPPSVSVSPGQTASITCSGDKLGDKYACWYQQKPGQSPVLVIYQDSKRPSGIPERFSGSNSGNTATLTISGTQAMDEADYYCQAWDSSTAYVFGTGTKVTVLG
B5: Clone 6 scFv phage clone (scFv, V domains shown)
VH: QVQLQQWGAGLLKPSETLSLTCAVYGGSFSGYYWSWIRQPPGKGLEWIGEINHSGSTNYNPSLKSRVTISVDTSKNQFSLKLSSVTAADTAVYYCARLEGSYYDVWGQGTLVTVSS
VL: QSVLTQPPSVSAAPGQKVTVSCSGTTSDIGSNYVTWYQQLPGTTPKLIIYDNNKRPSGIPDRFSGSKSGTSGTLGITGLQTGDEADYYCGTWDSSLNTFVFGTGTKVTVLG
B6: Clone 19 scFv phage clone (Clone 19 scFv) (scFv)
scFv: NFMLTQPHSVSESPGKTVTISCVRSSGSVASEFVQWYQQRPGHAPTLVIYNDFQRPSGVPDRFSGSIDKSSNSASLTISGLKAEDEADYYCQSYDQSSSIVFGGGTKLTVLGSRGGGGSGGGGSGGGGSLEMAEVQLVQSGAEVKKPGESLKISCKGSGYSFTTYWIGWVRQMPGKGLEWMGIIYPGDSDTTYSPSFQGQVTISADKSLSIAYLQWSSLKASDTAMYYCARYGGQYFWSDSFDSWGQGTLVTVSS
B7: Clone 12 scFv phage clone (scFv, V domains shown)
VH: QVQLQESGPGLVKPSGTLSLTCAVSGGSISSSNWWSWVRQAPGKGLEWIGEIYHGGSTNFNPSLKSRVTISVDKSKNQFSLNLTSVTAADTAVYYCARYASSSHDFWGQGTLVTVSS
VL: QSVLTQPPSVSAAPGQRVTIYCSGSRSNIVSNYVSWYQQLPGTAPKLLIYDNNKRPSGIPDRFSGSKSGTSATLGITGLQTGDEADYYCGTWDSSLSAYVFGTGTKVAVLG
B8: Clone 15 scFv phage clone (scFv, V domains shown)
VH: QVQLQESGPGLVKPSGTLSLTCAVSGGSISSSNWWSWVRQPPGKGLEWIGEIYHSGSTNYNPSLKSRVTISVDKSKNQFSLKLSSVTAADTAVYYCARYPGFVWDLWGQGTLVTVSS
VL: B7 VL with R17K, Y21S, R26S, V30G, T73I, S97T, Y99G, A108T
B9: Clone 8 scFv phage clone (scFv, V domains shown)
VH: QLQLQESGPGLVKPSETLSLTCTVSGDSISGYYWSWIRQPPGKGLEWIGEINHSGSTNYNPSLKSRVTISVDTSKNQFSLKLSSVTAADTAVYYCARYYSGFYSSDGWGQGTLVTVSS
VL: B7 VL with G15R, R17K, Y21S, R26S, V30G, K67R, T91S, A98V, A108T
B10: Clone 9 scFv phage clone (scFv, V domains shown)
VH: B8 VH with S15P, P100E, G101Q, F102G, V103S, W104H, L106S
VL: B7 VL with R17K, Y21S, R26S, V30G, V34I, N53S, S66F, T103S, A108T
B11: Clone 2 scFv phage clone (scFv, V domains shown)
VH: QVQLVQSGAEVKKPGSSVKVSCKASGGTFSSYAISWVRQAPGQGLEWMGWISAYNGNTNYAQKLQGRVTMTTDTSTSTAYMELRSLRSDDTAVYYCARKGFYSGFDSWGQGTLVTVSS
VL: B7 VL with R17K, Y21S, R26S, V30G, N53T, T70S, G90E, W92L, A108T
notes: also called phage clone 2
B12: Clone 10 scFv phage clone (scFv, V domains shown)
VH: QVQLQESGPGLVKPPGTLSLTCAVSGGSISSSNWWSWVRQPPGKGLEWIGEIYHSGSTNYNPSLNSRVIISDDTSKNQFSLTLTSVTAADTAVYYCARYYNSYYDSWGQGTLVTVSS
VL: B7 VL with R17K, Y21S, R26S, V30G, A108T
B13: Clone 1 scFv phage clone (Clone 01 scFv) (scFv)
scFv: DIQLTQSPSSLSASVGDRVTITCRASQGIRNDLGWYQQKPGKAPKLMIYAASSLQSGVPSRFSGSGSGTDFTLTISSLQPEDFATYYCLQDYDYPLTFGGGTKLEIKRSRGGGGSGGGGSGGGGSLEMAEVQLVQSGAEVKKPGESLKISCEASGYSFSSNWIAWVRQRPGKGLEWMGIIYPGDSDTRYSPSFQGQVTMSADMSISTAYLQWSSLKASDTAMYYCARFAGPGMWSYGFDYWGQGTLVTVSS
notes: also called phage clone 1
B14: Clone 14 scFv phage clone (Clone 14 scFv) (scFv)
scFv: QSVLTQPPSVSAAPGQRVTISCSGSTSNIGSNYVSWYQQFPGTAPKLLIYDSDKRISGIPDRFSGSKSGTSATLGITGLQTGDEADYYCGTWDSSLTVGVFGGGTKVTVLGSRGGGGSGGGGSGGGGSLEMAQLQLQESGPGLVKPSGTLSLTCAVSGGSISSSNWWSWVRQPPGKGLEWIGEIYHSGSTNYNPSLKSRVTISVDKSKNQFSLKLSSVTAADTAVYYCARYFGQKYDYWGQGTLVTVSS
B15: Clone 11 scFv phage clone (Clone 11 scFv) (scFv)
scFv: NFMLTQPHSVSESPGKTVTISCTRSSGSIASNYVQWYQQRPGSAPTTVIYEDNQRPSGVPDRFSGSIDSSSNSASLTISGLKTEDEADYYCQSYDSSNVVFGGGTKLTVLGSRGGGGSGGGGSGGGGSLEMAQVQLVQSGAEVRKPGASVKVSCKASGYSFTSNGITWVRQAPGQGLEWMGWISGYNANTRYAQEFQARVTMTTDTSASTAYMELRSLRSDDTAVYYCARHAYWGGDSDYWGQGTLVTVSS
B16: Clone 7 scFv phage clone (Clone 07 scFv) (scFv)
scFv: QSVVTQPPSVSGAPGQRITISCTGSSSNIGAGYDVHWYQQLPGTAPKLLIFGNVNRPSGVPDRFSGSKSGTSASLAITGLQAEDEADYYCQSYDSSLSGWVFGGGTKLTVLGSRGGGGSGGGGSGGGGSLEMAQVQLQQSGAEVKKPGATVKVSCKASGYTFTSYGISWVRQAPGQGLEWMGWISAYNGNTNYAQKLQGRVTMTTDTSTSTAYMELRSLRSDDTAVYYCARMSMSEYIDYWGQGTLVTVSS
B17: TCR mimic antibody clone 11 (mIgG1 format) (antibody, V domains shown)
VH: QVQLVQSGAEVRKPGASVKVSCKASGYSFTSNGITWVRQAPGQGLEWMGWISGYNANTRYAQEFQARVTMTTDTSASTAYMELRSLRSDDTAVYYCARHAYWGGDSDYWGQGTLVTVSS
VL: NFMLTQPHSVSESPGKTVTISCTRSSGSIASNYVQWYQQRPGSAPTTVIYEDNQRPSGVPDRFSGSIDSSSNSASLTISGLKTEDEADYYCQSYDSSNVVFGGGTKLTVLG
notes: conjugated to PE for flow cytometry
B18: NDC80 Peptide A ALNEQIARL (synthetic peptide) (peptide)
peptide: ALNEQIARL
notes: Free peptide pulsed on T2 cells at 50 µg/ml in the HLA-A*02 stabilization assay; also called unmodified peptide; wild-type peptide

target: T1, NDC80 Peptide A … / HLA-A*02:01 complex (human); assay: FACS, scFv phage on peptide-loaded T2 cells
T1 construct: whole, on cells; On peptide-pulsed T2 cells (HLA-A*02:01+); also called NDC80/HLA-A*02:01 complex; NDC80/MHC I
Description: 34 human phage scFv libraries were used to pan against NDC80/HLA-A*02:01 complex. In order to avoid the conformational change of MHC I complex introduced by immobilizing the protein complex onto plastic surfaces, cell panning was used in place of conventional plate panning. In cell panning, the human scFv phage libraries were first mixed with T2 cells loaded with control peptides to remove scFv phage clones that bind to T2 cells alone or MHC alone. […] T2 is a TAP-deficient, HLA-A*02:01⁺ lymphoblast cell line that express low amounts of HLA-A*02 on the cell surface and can only present exogenous peptides. […] After extensive washing with PBS, peptide-loaded T2 cells with bound scFv antibody phage were spun down. […] The panning was performed for 3 rounds to enrich scFv phage clones that bound NDC80/HLA-A*02:01 specifically.

Row | Binder | binding result
1 | B1 | binds
2 | B2 | binds
3 | B3 | binds
4 | B4 | binds
5 | B5 | binds
6 | B6 | binds
7 | B7 | binds
8 | B8 | binds
9 | B9 | binds
10 | B10 | binds
11 | B11 | binds
12 | B12 | binds
13 | B13 | binds
14 | B14 | binds
15 | B15 | binds
16 | B16 | binds

target: T1, NDC80 Peptide A … / HLA-A*02:01 complex; assay: flow cytometry, PE-conjugated antibody on pulsed T2 cells
Protocol: Pulsed T2 cells were harvested, washed with FACS buffer (PBS, 2% FBS and 0.01% sodium azide) and incubated for 30 min, light-protected, on ice with 2 μg/ml of the labeled antibodies. After incubation, cells were washed again with FACS buffer and resuspended in FACS buffer supplemented with DAPI. For the experiments described in FIGS. 10A-10I, incubation with the TCR mimic antibodies was performed at 2, 10 and 50 μg/ml. Cells were analyzed on an LSRFortessa™ (BD) flow cytometer; the data were analyzed using FlowJo™ v9 software.

Row | Binder | binding result
17 | B17 | binds

target: T2, HLA-A*02:01 on T2 cells (human); assay: HLA-A*02 stabilization on pulsed T2 cells, BB7.2 staining, flow cytometry
T2 construct: whole, on cells; MHC class I molecule of TAP-deficient T2 cells, stabilized by exogenous peptide and detected with BB7.2; also called A*02 protein
Protocol: Flow Cytometry. T2 cells were pulsed overnight with 50 μg/ml of one of the indicated peptides. Pulsed T2 cells were then stained with either BB7.2-PE antibody specific for HLA-A*02 to ensure stabilization of T2 cells with the pulsed peptides or with the labeled TCR mimic antibodies for 30 min on ice as described herein. Cells were washed after incubation with FACS buffer, resuspended in FACS buffer supplemented with DAPI and analyzed using a BD Fortessa™ flow cytometer.
For alanine screening assays, alanine or glycine substituted peptides were purchased from Genemed Synthesis, Inc. (San Antonio, Texas, USA). Besides the unsubstituted sequence of [sequence] […] If in the original peptide sequence the amino acid present was an alanine, the amino acid was changed to glycine. All other amino acids were changed into alanines.

Row | Binder | binding result
18 | B18 | binds

target: T3, NC2 peptide … / HLA-A*02:01 complex (human); assay: FACS, scFv phage on T2 cells loaded with single peptide
T3 construct: whole, on cells; On pulsed T2 cells; also presented on JMN cells (HLA-A*02)

Row | Binder | binding result
19 | B1 | no binding
20 | B6 | no binding
21 | B13 | no binding
22 | B14 | no binding
23 | B15 | no binding
24 | B16 | no binding

target: T4, NC1 peptide … / HLA-A*02:01 complex (human); assay: as above
T4 construct: whole, on cells; On pulsed T2 cells; also pulled down from BV173 lysate (HLA-A*02) and presented on JMN cells

Row | Binder | binding result
25 | B1 | no binding
26 | B6 | no binding
27 | B13 | no binding
28 | B14 | no binding
29 | B15 | no binding
30 | B16 | no binding

target: T5, NC3 peptide … / HLA-A*02:01 complex (human); assay: as above
T5 construct: whole, on cells; On pulsed T2 cells; also pulled down from BV173 lysate (HLA-A*02)

Row | Binder | binding result
31 | B1 | no binding
32 | B6 | no binding
33 | B13 | no binding
34 | B14 | no binding
35 | B15 | no binding
36 | B16 | no binding

target: T6, NC4 peptide … / HLA-A*02:01 complex (human); assay: as above
T6 construct: whole, on cells; On pulsed T2 cells

Row | Binder | binding result
37 | B1 | no binding
38 | B6 | no binding
39 | B13 | no binding
40 | B14 | no binding
41 | B15 | no binding
42 | B16 | no binding
